Data: paper PMC3968367

How the values were obtained:
His28 = His28 (UniProt position 50, AFGRAHGKCMN); settings: free toxin (inferred); cited from earlier work
rKv1.2 (rat) [1] = target: rKv1.2 (rat) (UniProt P63142)
rKv1.3 (rat) [2] = target: rKv1.3 (rat) (UniProt P15384)
Shaker IR (Drosophila) [3] = target: Shaker IR (Drosophila) (UniProt P08510)
rKv1.2 (rat) [4] = target: rKv1.2 (rat) (UniProt P63142); remark: listed apart in the source
rKv1.6 (rat) = rKv1.6 (rat) (UniProt P17659)
rKv1.3 (rat) [5] = target: rKv1.3 (rat) (UniProt P15384); remark: listed apart in the source
rKv1.1 (rat) = rKv1.1 (rat) (UniProt P10499)
Chain of rKv1.1 (rat) (P10499 whole entry): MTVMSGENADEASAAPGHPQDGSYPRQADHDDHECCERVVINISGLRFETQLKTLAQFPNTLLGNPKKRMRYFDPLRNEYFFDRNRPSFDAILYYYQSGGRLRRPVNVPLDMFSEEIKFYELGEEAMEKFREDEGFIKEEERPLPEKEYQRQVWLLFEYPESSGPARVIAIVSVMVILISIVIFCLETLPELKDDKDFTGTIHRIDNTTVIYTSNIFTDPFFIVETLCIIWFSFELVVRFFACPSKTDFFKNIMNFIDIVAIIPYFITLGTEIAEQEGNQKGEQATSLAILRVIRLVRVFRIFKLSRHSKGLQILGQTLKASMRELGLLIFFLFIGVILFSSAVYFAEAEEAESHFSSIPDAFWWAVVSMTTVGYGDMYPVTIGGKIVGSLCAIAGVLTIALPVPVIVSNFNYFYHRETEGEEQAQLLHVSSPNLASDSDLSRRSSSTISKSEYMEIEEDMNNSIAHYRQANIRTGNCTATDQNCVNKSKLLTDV

Shaker IR (Drosophila) [6] = target: Shaker IR (Drosophila) (UniProt P08510); remark: listed apart in the source

Chain of rKv1.3 (rat) (P15384 whole entry): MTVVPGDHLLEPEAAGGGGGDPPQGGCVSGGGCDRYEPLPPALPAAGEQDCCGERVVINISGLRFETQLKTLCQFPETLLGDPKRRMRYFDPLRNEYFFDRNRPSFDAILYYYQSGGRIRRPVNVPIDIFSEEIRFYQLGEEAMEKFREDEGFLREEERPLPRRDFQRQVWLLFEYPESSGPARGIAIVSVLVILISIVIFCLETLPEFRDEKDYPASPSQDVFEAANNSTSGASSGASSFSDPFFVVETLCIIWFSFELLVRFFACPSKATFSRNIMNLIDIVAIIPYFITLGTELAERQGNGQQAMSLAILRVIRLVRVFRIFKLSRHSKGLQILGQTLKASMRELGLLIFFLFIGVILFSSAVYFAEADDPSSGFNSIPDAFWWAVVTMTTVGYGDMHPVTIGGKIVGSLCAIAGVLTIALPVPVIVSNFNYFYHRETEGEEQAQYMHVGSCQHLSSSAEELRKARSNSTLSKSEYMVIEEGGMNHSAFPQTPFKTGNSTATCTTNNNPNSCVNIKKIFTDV
Chain of rKv1.2 (rat) (P63142 whole entry): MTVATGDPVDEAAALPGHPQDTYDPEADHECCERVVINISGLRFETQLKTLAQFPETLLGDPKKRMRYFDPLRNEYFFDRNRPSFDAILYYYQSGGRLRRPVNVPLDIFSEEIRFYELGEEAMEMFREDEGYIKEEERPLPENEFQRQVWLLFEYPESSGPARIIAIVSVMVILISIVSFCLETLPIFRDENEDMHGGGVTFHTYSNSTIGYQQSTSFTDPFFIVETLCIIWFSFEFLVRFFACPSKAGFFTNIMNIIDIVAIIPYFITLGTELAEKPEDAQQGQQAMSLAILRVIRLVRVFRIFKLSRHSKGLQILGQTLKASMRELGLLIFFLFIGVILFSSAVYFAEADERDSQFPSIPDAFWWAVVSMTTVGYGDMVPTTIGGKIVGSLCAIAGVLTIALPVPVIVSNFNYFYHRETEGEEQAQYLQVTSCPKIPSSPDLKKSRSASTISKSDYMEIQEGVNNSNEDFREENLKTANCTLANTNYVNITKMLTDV
Chain of Shaker IR (Drosophila) (P08510 whole entry): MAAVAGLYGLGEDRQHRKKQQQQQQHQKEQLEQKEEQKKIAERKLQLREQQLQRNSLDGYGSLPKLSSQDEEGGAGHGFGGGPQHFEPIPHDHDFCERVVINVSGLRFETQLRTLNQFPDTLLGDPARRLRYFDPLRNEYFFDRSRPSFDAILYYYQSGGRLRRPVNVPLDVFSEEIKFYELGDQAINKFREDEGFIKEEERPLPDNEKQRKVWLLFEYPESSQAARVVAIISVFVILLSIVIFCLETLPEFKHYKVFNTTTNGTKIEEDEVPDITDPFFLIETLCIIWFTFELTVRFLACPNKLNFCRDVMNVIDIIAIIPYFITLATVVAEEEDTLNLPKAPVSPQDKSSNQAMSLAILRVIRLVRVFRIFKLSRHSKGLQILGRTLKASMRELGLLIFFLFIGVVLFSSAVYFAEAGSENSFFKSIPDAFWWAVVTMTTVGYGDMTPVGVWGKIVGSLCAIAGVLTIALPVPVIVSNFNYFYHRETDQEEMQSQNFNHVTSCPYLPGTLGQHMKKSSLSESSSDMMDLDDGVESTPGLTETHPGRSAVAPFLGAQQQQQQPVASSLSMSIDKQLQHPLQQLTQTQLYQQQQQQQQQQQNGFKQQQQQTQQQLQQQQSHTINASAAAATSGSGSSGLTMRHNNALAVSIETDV
Chain of rKv1.6 (rat) (P17659 whole entry): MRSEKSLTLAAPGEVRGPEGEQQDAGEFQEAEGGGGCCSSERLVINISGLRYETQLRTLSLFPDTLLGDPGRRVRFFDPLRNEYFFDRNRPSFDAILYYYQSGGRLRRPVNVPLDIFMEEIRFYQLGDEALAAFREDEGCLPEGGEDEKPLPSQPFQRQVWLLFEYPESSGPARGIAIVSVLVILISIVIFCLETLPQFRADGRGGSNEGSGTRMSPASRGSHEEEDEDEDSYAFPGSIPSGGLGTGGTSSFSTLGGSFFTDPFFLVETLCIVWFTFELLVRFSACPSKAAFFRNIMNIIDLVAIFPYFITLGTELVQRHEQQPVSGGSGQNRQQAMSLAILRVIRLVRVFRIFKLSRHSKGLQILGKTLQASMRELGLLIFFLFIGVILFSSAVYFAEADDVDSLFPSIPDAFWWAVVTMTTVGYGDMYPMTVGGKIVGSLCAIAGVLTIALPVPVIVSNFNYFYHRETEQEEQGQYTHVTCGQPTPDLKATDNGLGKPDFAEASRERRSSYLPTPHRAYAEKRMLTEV

Ts6 (alpha-KTx12.1, TsTX-IV, butantoxin) (Tityus serrulatus)
pKa (His28): 5.2

Ts6 (from UniProt P59936 23-62) (peptide)
blocking effect on the K+ current at 1 µM Ts6, two-microelectrode voltage clamp on Xenopus oocytes (rKv1.2 (rat) [1]): 86% | blocking effect on the K+ current at 1 µM Ts6, two-microelectrode voltage clamp on Xenopus oocytes (rKv1.3 (rat) [2]): 98% | blocking effect on the K+ current at 1 µM Ts6, two-microelectrode voltage clamp on Xenopus oocytes (Shaker IR (Drosophila) [3]): 79%

Ts7 (from UniProt P46114 23-59) (peptide)
blocking effect on the K+ current at 1 µM Ts7, two-microelectrode voltage clamp on Xenopus oocytes (rKv1.2 (rat) [4]): 91% | blocking effect on the K+ current at 1 µM Ts7, two-microelectrode voltage clamp on Xenopus oocytes (rKv1.6 (rat)): 94% | blocking effect on the K+ current at 1 µM Ts7, two-microelectrode voltage clamp on Xenopus oocytes (rKv1.3 (rat) [5]): 89% | blocking effect on the K+ current at 1 µM Ts7, two-microelectrode voltage clamp on Xenopus oocytes (rKv1.1 (rat)): 85% | blocking effect on the K+ current at 1 µM Ts7, two-microelectrode voltage clamp on Xenopus oocytes (Shaker IR (Drosophila) [6]): 97%
